Assay [1] deals with talin H1-H4. As to the kind of experiment: isothermal titration calorimetry. (In general: In ITC the heat of successive injections is recorded.)
Assay [2] deals with talin H1-H4. As to the kind of experiment: ITC; HVD1:A483 equimolar complex in the cell, talin H1-H4 as titrant.
Assay [3] addresses talin H1-H4. As to the kind of experiment: size exclusion chromatography; stoichiometry listed for the ternary complex. For orientation: In gel filtration, larger molecules generally elute earlier.
The target in assay [4] is T1, vinculin in C2.7 mouse myoblast cells (mouse) (UniProt Q64727).
T1 sequence: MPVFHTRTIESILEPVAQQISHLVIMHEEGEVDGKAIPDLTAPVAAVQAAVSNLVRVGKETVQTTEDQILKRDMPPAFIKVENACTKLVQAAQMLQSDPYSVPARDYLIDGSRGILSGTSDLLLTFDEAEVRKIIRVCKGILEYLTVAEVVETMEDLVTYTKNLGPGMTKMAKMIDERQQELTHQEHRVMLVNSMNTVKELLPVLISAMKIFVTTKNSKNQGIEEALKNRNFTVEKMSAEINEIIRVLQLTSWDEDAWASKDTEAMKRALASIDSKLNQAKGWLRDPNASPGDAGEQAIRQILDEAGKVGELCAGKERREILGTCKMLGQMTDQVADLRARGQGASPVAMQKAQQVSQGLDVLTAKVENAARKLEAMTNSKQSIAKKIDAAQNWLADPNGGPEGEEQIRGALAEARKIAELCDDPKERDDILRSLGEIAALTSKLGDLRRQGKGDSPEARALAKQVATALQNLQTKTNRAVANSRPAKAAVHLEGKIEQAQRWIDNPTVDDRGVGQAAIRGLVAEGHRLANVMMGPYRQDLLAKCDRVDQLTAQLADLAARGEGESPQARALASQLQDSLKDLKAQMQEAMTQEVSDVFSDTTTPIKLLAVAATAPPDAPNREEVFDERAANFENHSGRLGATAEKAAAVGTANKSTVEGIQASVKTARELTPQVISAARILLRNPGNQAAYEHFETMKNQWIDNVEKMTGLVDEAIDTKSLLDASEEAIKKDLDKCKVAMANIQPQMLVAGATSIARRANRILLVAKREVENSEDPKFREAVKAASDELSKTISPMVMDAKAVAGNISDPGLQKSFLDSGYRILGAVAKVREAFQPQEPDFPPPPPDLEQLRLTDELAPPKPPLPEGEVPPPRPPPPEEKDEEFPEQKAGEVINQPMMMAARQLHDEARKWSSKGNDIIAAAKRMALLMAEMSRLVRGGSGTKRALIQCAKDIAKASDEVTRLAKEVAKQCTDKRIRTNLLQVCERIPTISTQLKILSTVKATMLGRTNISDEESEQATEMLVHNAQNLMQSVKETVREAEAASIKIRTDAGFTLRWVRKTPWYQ
As to the kind of experiment: cell-based or functional assay.

Assay [5] has as its target talin H1-H4. As to the kind of experiment: ITC; A483 in the cell, talin H1-H4 as titrant.
Assay [6] concerns the target talin H1-H4. As to the kind of experiment: size exclusion chromatography; stoichiometry listed for the complex.
Assay [7] addresses talin H1-H4. As to the kind of experiment: ITC; A524 in the cell, talin H1-H4 as titrant.
For assay [8], the target named is talin H1-H4. As to the kind of experiment: ITC; talin H1-H4 in the cell, IpaA VBS1 peptide as titrant.
Assay [9] concerns the target talin H1-H4. As to the kind of experiment: ITC; talin H1-H4 in the cell, IpaA VBS3 peptide as titrant.
The next assay concerns the target talin in HeLa cells (UniProt Q9Y490). As to the kind of experiment: cell-based or functional assay.
In assay [10] the target is talin H1-H4. As to the kind of experiment: isothermal titration calorimetry, cell talin H1-H4, titrant talin H46 (VBS3).

These results are taken from patent US20180264072A1.

A word on the Kd: it is the free concentration of one partner at which half of the binding sites on the other are occupied at equilibrium, for simple one-to-one binding. Low values mean a tighter complex, high ones a looser complex.

Chain of talin H1-H4 (P26039 482-636): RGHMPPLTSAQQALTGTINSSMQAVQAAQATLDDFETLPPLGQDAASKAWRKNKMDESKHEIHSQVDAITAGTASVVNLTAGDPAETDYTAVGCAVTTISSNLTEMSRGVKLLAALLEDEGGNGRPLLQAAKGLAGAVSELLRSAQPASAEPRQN
Chain of IpaA 524-633 (A524) (P18010 524-633 limits assumed): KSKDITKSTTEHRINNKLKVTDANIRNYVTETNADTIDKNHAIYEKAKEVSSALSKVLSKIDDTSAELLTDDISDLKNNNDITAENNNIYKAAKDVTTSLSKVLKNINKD
Chain of A483:HVD1 complex (P18010 483-633 limits assumed): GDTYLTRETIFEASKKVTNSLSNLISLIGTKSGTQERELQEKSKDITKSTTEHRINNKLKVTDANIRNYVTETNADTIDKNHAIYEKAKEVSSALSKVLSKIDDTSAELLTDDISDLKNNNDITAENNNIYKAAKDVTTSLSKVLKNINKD
Chain of IpaA 483-633 (A483) (P18010 483-633 limits assumed): as above
Chain of GFP-A483 (P18010 483-633): as the sequence (P18010 483-633 limits assumed) above
Chain of talin in HeLa cells (Q9Y490 whole entry): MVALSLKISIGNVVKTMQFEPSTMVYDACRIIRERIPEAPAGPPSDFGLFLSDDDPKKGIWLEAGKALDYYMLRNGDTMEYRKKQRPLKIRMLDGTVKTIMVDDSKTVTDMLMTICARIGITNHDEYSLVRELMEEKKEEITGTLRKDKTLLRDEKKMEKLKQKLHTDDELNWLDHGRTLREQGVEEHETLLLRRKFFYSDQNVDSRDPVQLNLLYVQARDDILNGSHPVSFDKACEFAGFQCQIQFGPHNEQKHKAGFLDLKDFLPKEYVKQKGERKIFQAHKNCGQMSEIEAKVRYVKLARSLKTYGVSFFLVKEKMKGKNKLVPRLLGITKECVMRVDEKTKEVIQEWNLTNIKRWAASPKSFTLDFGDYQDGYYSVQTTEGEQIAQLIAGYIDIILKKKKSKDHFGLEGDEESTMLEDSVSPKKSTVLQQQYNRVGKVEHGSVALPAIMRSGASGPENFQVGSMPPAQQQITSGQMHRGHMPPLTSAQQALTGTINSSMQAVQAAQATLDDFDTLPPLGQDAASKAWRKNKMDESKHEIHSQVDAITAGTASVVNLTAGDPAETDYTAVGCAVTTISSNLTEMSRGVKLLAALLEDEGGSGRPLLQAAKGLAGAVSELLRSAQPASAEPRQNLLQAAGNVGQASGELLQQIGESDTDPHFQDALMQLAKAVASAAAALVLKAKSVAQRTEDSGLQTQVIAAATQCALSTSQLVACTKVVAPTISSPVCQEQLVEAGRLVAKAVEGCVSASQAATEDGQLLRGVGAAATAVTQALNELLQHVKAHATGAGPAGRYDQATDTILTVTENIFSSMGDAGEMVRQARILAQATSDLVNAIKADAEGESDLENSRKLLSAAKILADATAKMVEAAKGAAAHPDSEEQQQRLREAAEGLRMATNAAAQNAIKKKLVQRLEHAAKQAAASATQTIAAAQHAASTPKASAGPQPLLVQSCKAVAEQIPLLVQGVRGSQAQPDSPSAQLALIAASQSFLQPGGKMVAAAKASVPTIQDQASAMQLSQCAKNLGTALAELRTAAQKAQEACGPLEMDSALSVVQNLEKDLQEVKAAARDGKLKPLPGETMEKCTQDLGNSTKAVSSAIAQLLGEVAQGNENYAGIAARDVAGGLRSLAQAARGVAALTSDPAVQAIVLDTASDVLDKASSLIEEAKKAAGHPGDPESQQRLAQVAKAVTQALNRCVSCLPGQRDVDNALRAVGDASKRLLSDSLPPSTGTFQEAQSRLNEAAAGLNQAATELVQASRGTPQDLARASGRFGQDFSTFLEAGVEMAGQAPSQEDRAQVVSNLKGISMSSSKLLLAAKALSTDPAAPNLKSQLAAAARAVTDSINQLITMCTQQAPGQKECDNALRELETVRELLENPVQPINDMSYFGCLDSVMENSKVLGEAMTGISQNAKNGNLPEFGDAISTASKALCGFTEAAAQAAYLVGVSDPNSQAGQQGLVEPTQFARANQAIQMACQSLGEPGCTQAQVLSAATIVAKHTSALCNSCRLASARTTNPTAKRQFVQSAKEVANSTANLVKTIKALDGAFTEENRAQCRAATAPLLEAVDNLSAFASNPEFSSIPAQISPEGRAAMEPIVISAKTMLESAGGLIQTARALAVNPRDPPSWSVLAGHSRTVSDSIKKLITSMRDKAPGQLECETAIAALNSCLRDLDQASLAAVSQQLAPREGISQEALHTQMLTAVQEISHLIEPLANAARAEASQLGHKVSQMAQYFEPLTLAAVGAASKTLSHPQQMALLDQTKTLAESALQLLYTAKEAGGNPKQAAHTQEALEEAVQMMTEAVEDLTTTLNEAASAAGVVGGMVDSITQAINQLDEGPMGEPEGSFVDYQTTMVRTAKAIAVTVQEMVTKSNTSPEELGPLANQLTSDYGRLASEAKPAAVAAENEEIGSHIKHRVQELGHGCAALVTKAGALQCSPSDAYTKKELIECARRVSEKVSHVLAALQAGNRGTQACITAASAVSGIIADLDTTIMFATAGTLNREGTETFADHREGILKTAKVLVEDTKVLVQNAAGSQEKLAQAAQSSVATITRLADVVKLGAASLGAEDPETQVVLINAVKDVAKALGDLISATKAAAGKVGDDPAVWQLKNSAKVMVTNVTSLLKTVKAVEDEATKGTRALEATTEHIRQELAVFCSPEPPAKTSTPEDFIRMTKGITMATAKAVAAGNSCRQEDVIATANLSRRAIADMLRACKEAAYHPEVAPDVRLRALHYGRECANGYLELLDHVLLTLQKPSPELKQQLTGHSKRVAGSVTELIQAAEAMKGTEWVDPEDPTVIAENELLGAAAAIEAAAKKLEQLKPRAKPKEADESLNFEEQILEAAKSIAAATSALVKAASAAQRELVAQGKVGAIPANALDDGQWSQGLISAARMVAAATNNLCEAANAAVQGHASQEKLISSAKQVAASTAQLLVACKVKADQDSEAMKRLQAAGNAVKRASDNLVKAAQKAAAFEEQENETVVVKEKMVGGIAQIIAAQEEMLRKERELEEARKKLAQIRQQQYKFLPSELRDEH
Chain of IpaA full length (P18010 whole entry): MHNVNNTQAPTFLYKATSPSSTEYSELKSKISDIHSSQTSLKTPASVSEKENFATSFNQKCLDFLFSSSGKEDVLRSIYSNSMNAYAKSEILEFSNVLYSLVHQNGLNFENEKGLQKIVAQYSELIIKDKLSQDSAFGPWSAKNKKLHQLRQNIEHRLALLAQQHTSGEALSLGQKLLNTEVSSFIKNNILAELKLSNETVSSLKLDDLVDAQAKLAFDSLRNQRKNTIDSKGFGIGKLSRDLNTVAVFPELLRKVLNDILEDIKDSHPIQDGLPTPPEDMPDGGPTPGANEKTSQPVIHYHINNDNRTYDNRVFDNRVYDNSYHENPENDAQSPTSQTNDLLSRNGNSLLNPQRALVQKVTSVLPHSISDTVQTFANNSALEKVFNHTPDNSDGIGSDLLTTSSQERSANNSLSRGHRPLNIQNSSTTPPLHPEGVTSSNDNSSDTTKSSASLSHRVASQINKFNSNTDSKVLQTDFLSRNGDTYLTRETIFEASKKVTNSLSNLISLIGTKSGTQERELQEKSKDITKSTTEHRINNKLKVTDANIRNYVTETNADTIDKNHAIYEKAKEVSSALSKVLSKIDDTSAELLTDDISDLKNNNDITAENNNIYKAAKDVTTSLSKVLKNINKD

In the case of “A483:HVD1 complex (from UniProt P18010 483-633; P18206 1-258)”, in the assay with talin H1-H4 [1], the -TΔS was 1.37 kcal/mol. Moreover, in the assay with talin H1-H4 [2], the -TΔS is -1.37 kcal/mol, the N (stoichiometry) was 0.459, the ΔG was -7.68 kcal/mol and the ΔH is -9.05 kcal/mol. In the assay with talin H1-H4 [3], this substance returned a stoichiometry of 1.

Take GFP-A483 (from UniProt P18010 483-633): in assay [4], the adhesion stress σ=F/A at detachment, parallel plates is 6.5 nN/µm^2; the median cell surface was found to be 1850 µm^2; the median time between two divisions (second group of GFP-A483 cells) amounted to 17.1 h; the median velocity of migration is 30.7 µm/hour. Further, the rate of single-cell traction force generation (dF/dt), parallel plates in assay [4] was determined as 0.4.

In the case of “IpaA 483-633 (A483) (from UniProt P18010 483-633)”, in the assay with talin H1-H4 [5], the -TΔS was -3.8 kcal/mol, the Kd worked out at 24.9 nM, the N (stoichiometry) turned out to be 1 and the ΔG was -10 kcal/mol. In the assay with talin H1-H4 [5], this substance displayed a ΔH of -6.23 kcal/mol. Moreover, in the assay with talin H1-H4 [6], the stoichiometry (molar ratio of the complex (1:1)) was found to be 1.

In the assay with talin H1-H4 [7], “IpaA 524-633 (A524) (from UniProt P18010 524-633)” showed a -TΔS of -3.47 kcal/mol, a Kd of 2030 nM, a N (stoichiometry) of 1.5 and a ΔG of -7.45 kcal/mol. In addition, in the assay with talin H1-H4 [7], the ΔH is -3.98 kcal/mol. Further, the stoichiometry (molar ratio of the complex (1:1)) with talin H1-H4 [6] was found to be 1.

IpaA VBS1 peptide: in the assay with talin H1-H4 [8], the -TΔS was -2.47 kcal/mol, the equilibrium dissociation constant (Kd) was determined as 15200 nM, the N (stoichiometry) amounted to 1.22 and the ΔG is -6.58 kcal/mol. Further, the ΔH with talin H1-H4 [8] is -4.1 kcal/mol.

In the assay with talin H1-H4 [1], IpaA VBS3/TBS peptide displayed a -TΔS of -1.53 kcal/mol, a Kd of 150 nM and a ΔG of -9.07 kcal/mol. In the assay with talin H1-H4 [9], the -TΔS is -2.83 kcal/mol, the Kd turned out to be 175 nM, the N (stoichiometry) is 0.893 and the ΔG was -9.22 kcal/mol. The substance also displayed a ΔH with talin H1-H4 [9] of -6.39 kcal/mol.

In the assay with talin in HeLa cells, “IpaA full length (from UniProt P18010 1-633)” gave a percentage of foci forming talin coat structures of 52%.

Regarding “talin H46 (talin VBS3) α-helix (peptide)”, in the assay with talin H1-H4 [1], the -TΔS was 7.2 kcal/mol, the Kd is 60 nM and the ΔH is -17 kcal/mol. In the assay with talin H1-H4 [10], this substance registered an N of 0.92 and a ΔG of -9.97 kcal/mol.
